According to article PMC4162137:

Tests used:
[1] = molecular target: TMPRSS2-ERG8 encoded protein (Type II ERG) fused to an N- or C-terminal fragment of Venus (human); assay: split reporter (BiFC, NanoBiT); BiFC with split Venus in HEK293 cells, 24 hours after transfection, percent of fluorescent cells counted by flow cytometry
[2] = molecular target: TMPRSS2-ERG3 encoded protein (Type I ERG) fused to an N- or C-terminal fragment of Venus (human) (UniProt P11308)
[3] = molecular target: TMPRSS2-ERG3 encoded protein (Type I ERG) fused to an N- or C-terminal fragment of Venus (human) (UniProt P11308); assay: split reporter (BiFC, NanoBiT); BiFC with split Venus in HEK293 cells, 24 hours after transfection, percent of fluorescent cells counted by flow cytometry

TMPRSS2-ERG8 encoded protein (Type II ERG) fused to an N- or C-terminal fragment of Venus (human), sequence (P11308 whole entry, the tested form may be a part): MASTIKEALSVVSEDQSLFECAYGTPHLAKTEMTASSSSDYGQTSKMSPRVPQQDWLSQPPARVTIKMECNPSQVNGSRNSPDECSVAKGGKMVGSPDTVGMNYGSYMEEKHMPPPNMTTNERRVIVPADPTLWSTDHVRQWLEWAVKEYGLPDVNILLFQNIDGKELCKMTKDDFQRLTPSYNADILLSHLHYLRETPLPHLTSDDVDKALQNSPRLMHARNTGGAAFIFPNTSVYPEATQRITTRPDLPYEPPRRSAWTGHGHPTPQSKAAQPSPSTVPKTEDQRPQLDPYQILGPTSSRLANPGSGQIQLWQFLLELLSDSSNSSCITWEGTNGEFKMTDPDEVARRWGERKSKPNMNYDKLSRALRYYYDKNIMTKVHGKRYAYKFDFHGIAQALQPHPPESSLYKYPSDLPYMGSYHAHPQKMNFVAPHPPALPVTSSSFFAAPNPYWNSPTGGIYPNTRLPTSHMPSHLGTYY

Row | percent of cells positive for fluorescence (% cells positive for fluorescence) [1] | mef2c enhancer luciferase reporter in HEK293 cells: 40 ng TM-ERG3 with 0-40 ng TM-ERG8 plasmid; reduction in luciferase activity against TM-ERG3 alone (at 20 ng or 40 ng TM-ERG8) (% reduction in luciferase activity) [2] | percent of cells positive for fluorescence (% cells positive for fluorescence) [3] | percent of cells positive for fluorescence (% positive cells) [1] | Substance
1 | 10.1 | – | – | – | TMPRSS2-ERG3 encoded protein (Type I ERG) fused to an N- or C-terminal fragment of Venus (from UniProt P11308-4 33-479) (natural protein)
2 | – | 50 | 12.7 | 5.4 | TMPRSS2-ERG8 encoded protein (Type II ERG) fused to an N- or C-terminal fragment of Venus (natural protein)
